Measurements as given in publication PMC10641069, “Intra- and inter-molecular regulation by intrinsically-disordered regions governs PUF protein RNA binding” (Nature Communications, 2023).
Positions count from the first letter of the chain named. Names and notes keep the numbering of the source. Values joined by “and” are separate entries in the source; they are usually repeats but may differ in a detail not shown here. Equal entries are not always repeated. Where two headings read alike, the source gives them in different places.

B1: FBF-2 RBD: FBF-2 RNA-binding domain, residues 164-575, lacking the C-terminal tail (protein)
chain: SNNVLPTWSLDSNGEMRSRLSLSEVLDSGDLMKFAVDKTGCQFLEKAVKGSLTSYQKFQLFEQVIGRKDDFLKLSTNIFGNYLVQSVIGISLATNDDGYTKRQEKLKNFISSQMTDMCLDKFACRVIQSSLQNMDLSLACKLVQALPRDARLIAICVDQNANHVIQKVVAVIPLKNWEFIVDFVATPEHLRQICSDKYGCRVVQTIIEKLTADSMNVDLTSAAQNLRERALQRLMTSVTNRCQELATNEYANYIIQHIVSNDDLAVYRECIIEKCLMRNLLSLSQEKFASHVVEKAFLHAPLELLAEMMDEIFDGYIPHPDTGKDALDIMMFHQFGNYVVQCMLTICCDAVSGRRQTKEGGYDHAISFQDWLKKLHSRVTKERHRLSRFSSGKKMIETLANLRSTHPIYELQ
modifications: left off: His6-SUMO, N-terminal, cleaved
B2: FBF-2 RBD + CT: C. elegans FBF-2 RBD plus C-terminal tail, residues 164-632 (protein)
chain: SNNVLPTWSLDSNGEMRSRLSLSEVLDSGDLMKFAVDKTGCQFLEKAVKGSLTSYQKFQLFEQVIGRKDDFLKLSTNIFGNYLVQSVIGISLATNDDGYTKRQEKLKNFISSQMTDMCLDKFACRVIQSSLQNMDLSLACKLVQALPRDARLIAICVDQNANHVIQKVVAVIPLKNWEFIVDFVATPEHLRQICSDKYGCRVVQTIIEKLTADSMNVDLTSAAQNLRERALQRLMTSVTNRCQELATNEYANYIIQHIVSNDDLAVYRECIIEKCLMRNLLSLSQEKFASHVVEKAFLHAPLELLAEMMDEIFDGYIPHPDTGKDALDIMMFHQFGNYVVQCMLTICCDAVSGRRQTKEGGYDHAISFQDWLKKLHSRVTKERHRLSRFSSGKKMIETLANLRSTHPIYELQSSGHDSFKTDYFSTASEHDGPELEKNGIEEGSLMLEPRSNKSSVSVKFSSSGSHGDD
modifications: left off: His6-SUMO, N-terminal, cleaved
B3: FBF-2 RBD + CT L610A: FBF-2 RBD + CT mutated in the C-terminal tail (L610A) (protein)
chain: B2 chain with L447A
modifications: left off: His6-SUMO, N-terminal, cleaved
B4: FBF-2 RBD + CT Loop6A: FBF-2 RBD + CT with E592A, D594A, E597A, E599A, E604A, E605A (protein)
chain: B2 chain with E429A, D431A, E434A, E436A, E441A, E442A
modifications: left off: His6-SUMO, N-terminal, cleaved
notes: FBF-2 RBD + CT with E592A, D594A, E597A, E599A, E604A, E605A

Columns and labels:
gld-1 FBEa RNA [1] = test: Electrophoretic mobility shift assay (EMSA), RNA binding; design: species or system C. elegans
Method: A 3′-Cy5-labeled synthetic RNA was ordered from IDT (gld-1 FBEa, 5′-[…]-3′). The FBF-2 proteins were serially diluted 2-fold from the highest concentration of 10 µM in the buffer used for gel filtration (20 mM HEPES pH 7.4, 150 mM NaCl, and 0.5 mM TCEP). 10 µl of the serially diluted protein samples were mixed with 10 µl RNA (10 nM) in a 2× buffer of 10 mM HEPES pH 7.4, 0.01% (v/v) Tween 20, 0.1 mg/ml BSA, 0.1 mg/ml yeast tRNA, and 2 mM DTT. For experiments in the presence of LST-1, LST-1 proteins at constant concentration were preincubated with FBF-2 at 4 °C for 2 h. The LST-1 concentrations were chosen based on their Kd’s for interaction with FBF-2. The final FBF-2 concentrations ranged from 5000 nM to 0.6 nM, and the LST-1 A or B concentrations were constant at 150 μM or 50 μM, respectively. The protein-RNA mixtures were incubated at 4 °C overnight. The samples were resolved on 10% TBE polyacrylamide gels run at constant voltage (100 V) with 1× TBE buffer at room temperature for 35 min. The gels were scanned and visualized with a Typhoon FLA 9500 imager using the Cy5 channel (excitation wavelength 635 nm). Band intensities were quantified with ImageQuant 5.2 (Cytiva). The data were fit with GraphPad Prism (version 9.2.0) using nonlinear regression with a one-site specific binding model. Mean Kd’s and standard error of the mean (SEM) from three or more technical replicates are reported (Supplementary Table 4). Full scan images for the replicates shown in the main figures and gel images for all replicates are included in a source data file.

gld-1 FBEa RNA [2] = test: Surface plasmon resonance, RNA-binding kinetics; design: species or system C. elegans
Method: Kinetics of FBF-2 binding to the gld-1 FBEa RNA were measured using a 2-channel OpenSPR instrument (Nicoya). A 3′-biotin-labeled synthetic RNA was ordered from Horizon Discovery (gld-1 FBEa, 5′-AUCAUGUGCCAUACA-biotin-3′). The 3′-biotinylated RNA was immobilized on streptavidin-treated biotin sensor chips (Nicoya). All experiments were performed at 20 °C with a buffer of 20 mM HEPES, pH 7.4, 150 mM NaCl, and 2 mM DTT. SPR data were collected using OpenSPR (Nicoya, version 4.3). FBF-2 proteins were injected with a flow rate of 20 µl/min. Data were obtained at five different protein concentrations (25, 50, 100, 200, and 400 nM for wild type RBD + CT; 12.5, 25, 50, 100, and 200 nM for RBD + CT mutants and wild type RBD). Sensor chips were regenerated using 0.05% or 0.1% (v/v) SDS. For each experiment, five binding curves were simultaneously fit using a 1:1 binding model with the TraceDrawer software (Ridgeview Instruments, version 1.9.1). Mean values and standard deviation were calculated from two technical replicates. Despite our efforts, the fit of the binding curves for the association phase of FBF-2 RBD and FBF-2 RBD + CT mutants is poorer than the fit for FBF-2 RBD + CT WT. The appearance of the curves is consistent with the derived kon and koff values, and importantly, the curve fit for the dissociation phase is better.

[3] = Melting temperature of FBF-2 proteins; type: physicochemical; conditions: for thermal stability: in words, vs RBD alone or vs RBD + CT
Method: Mutants of FBF-2 RBD + CT: Y479A (5′-[…]), L610A (5′-[…]), and Loop6A (E592A, D594A, E597A, E599A, E604A, E605A; 5′-[…]) were generated by site-directed mutagenesis with the primers indicated. Plasmid sequences were verified by DNA sequencing (Azenta Life Sciences). Protein variants were expressed and purified like wild type proteins. Melting temperatures of wild type and mutant proteins were assessed by differential scanning […]. Reaction mixtures (total volume of 20 μl) contained ~0.3 mg/ml FBF-2 proteins and Sypro Orange dye (1:1000 dilution) (Sigma). Fluorescent intensity was collected from 25 °C to 95 °C (3 °C increment/min) with a real time PCR instrument (Applied Biosystems™ QuantStudio 7 Flex System) using excitation and emission wavelengths of 470 nm and 586 nm, respectively. Protein Thermal Shift^TM software (Applied Biosystems, version 1.4) was used to analyze protein melting curves and calculate melting temperatures (Tm).

[4] = no LST-1, mean ± SEM of independent technical replicates (n = 3-5), 4 °C overnight, pH 7.4, Cy5-RNA 5′-AUCAUGUGCCAUAC-3′
[5] = derived from on/off rates, mean ± SD, two technical replicates
[6] = mean ± SD, two technical replicates, 20 °C, pH 7.4, 1:1 model
[7] = mean ± SD, three technical replicates, ~0.3 mg/ml protein, Sypro Orange, 25 to 95 °C, fluorescence

Molecule	Kd (gld-1 FBEa RNA [1]; [4]) [nM]	Kd (gld-1 FBEa RNA [1]; no LST-1, replicate 1) [nM]	Kd (gld-1 FBEa RNA [1]; no LST-1, replicate 2) [nM]	Kd (gld-1 FBEa RNA [1]; no LST-1, replicate 3) [nM]	Kd (gld-1 FBEa RNA [1]; no LST-1, replicate 4) [nM]	Kd (gld-1 FBEa RNA [2]; [5]) [nM]	koff (gld-1 FBEa RNA [2]; [6])	kon (gld-1 FBEa RNA [2]; [6])	Kd (gld-1 FBEa RNA [2]; replicate 1) [nM]	kon (gld-1 FBEa RNA [2]; replicate 1) [M⁻¹ s⁻¹]	koff (gld-1 FBEa RNA [2]; replicate 1, read-out: koff) [s⁻¹]	Kd (gld-1 FBEa RNA [2]; replicate 2) [nM]	kon (gld-1 FBEa RNA [2]; replicate 2) [M⁻¹ s⁻¹]	koff (gld-1 FBEa RNA [2]; replicate 2, read-out: koff) [s⁻¹]	Tm [3, 7] [°C]	Tm ([3]; replicate 1) [°C]	Tm ([3]; replicate 2) [°C]	Tm ([3]; replicate 3) [°C]	Kd (gld-1 FBEa RNA [1]; pH 7.4)	thermal stability [3]	other results
B1	70	75	62	98	44	6.6 ± 2.3	0.00086 s⁻¹	136000 M⁻¹ s⁻¹	8.2	120000	0.000979	5	151000	0.00075	36.32 ± 0.05	36.42	36.28	36.28			Kd (gld-1 FBEa RNA [1]; in the presence of 50 μM LST-1 B, mean ± SEM, n = 3, 4 °C overnight, pH 7.4): 176 nM; Kd (gld-1 FBEa RNA [1]; with 50 μM LST-1 B, replicate 1): 148 nM; Kd (gld-1 FBEa RNA [1]; with 50 μM LST-1 B, replicate 2): 180 nM; Kd (gld-1 FBEa RNA [1]; with 50 μM LST-1 B, replicate 3): 201 nM
B2	334	294	394	379	270	65.1 ± 21.1	0.00442 s⁻¹	71000 M⁻¹ s⁻¹	80	58700	0.00469	50	82500	0.00414	40.24 ± 0.12	40.06	40.48	40.20	114 nM and 68 nM	increased thermal stability compared to the RBD alone	fold weaker RNA-binding affinity (gld-1 FBEa RNA [1]; RBD + CT vs RBD alone): ~5 fold; Kd (gld-1 FBEa RNA [1]; with 150 μM LST-1 A, replicate 1): 111 nM; Kd (gld-1 FBEa RNA [1]; with 150 μM LST-1 A, replicate 2): 106 nM; fold faster off rate (gld-1 FBEa RNA [2]; RBD + CT vs RBD): ~ 5 fold
B3	51	38	32	66	30	9.4 ± 3.6	1.36 ± 0.11 x10^-3 s^-1	15.5 ± 4.7 x10^4 M^-1 s^-1	11.9	121000	0.00144	6.8	188000	0.00128	35.63 ± 0.05	35.72	35.58	35.58	82 ± 18 nM	melting temperature of the mutated protein near that of the RBD alone	Kd (gld-1 FBEa RNA [1]): 61 nM and 93 nM and 91 nM; Kd (gld-1 FBEa RNA [1]; no LST-1, replicate 5): 89 nM
B4	101	122	100	81		9.5 ± 4.2	0.94 ± 0.05 x10^-3 s^-1	10.9 ± 4.3 x10^4 M^-1 s^-1		78000	0.00097		139000	0.00091	37.58 ± 0.05	37.54	37.68	37.54	166 ± 21 nM	only modestly decreased the thermal stability	Kd (gld-1 FBEa RNA [1]): 142 nM and 175 nM and 180 nM
